# Measured values from the supplement of paper PMC10126150.
# ± gives the standard deviation of the averaged measurements.
# Test system: ATP
# Test: switch fluorescence ratio, 500 uM ATP over buffer (Cy3 cluster intensity, sum of 5 cycles each) (fold (ratio)); higher = stronger signal-on switching upon ATP binding; sequences stand for … in TCGTCGGCAGCGTCAGATGTGTATAAGAGACAGTTTTTTTTTTTTTTTTTTTTTTTTT…TC
# Conditions: aptamer strand: ATP DNA aptamer (quencher-CACCTGGGGGAGTATTGCGGAGGAAGG + anchor), 100 nM annealed; ATP concentration: 500 uM
# Procedure, shortened: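 Clusters carrying Cy3-labelled switching strands on a modified Illumina MiSeq flow-cell were annealed to 100 nM quencher-labelled ATP aptamer and imaged in selection buffer. They were imaged again after 15 min with 500 uM ATP at 22 °C, over five buffer/ATP cycles with NaOH stripping and re-annealing in between. For each cluster, the fluorescence ratio is the summed Cy3 intensity of the target cycles divided by that of the buffer cycles, averaged per switch-domain sequence. Clusters outside 100-1000 RFU were left out.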
# 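Also: ATP exposure 15 min at 22 °C before imaging.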
row,Sequence,switch fluorescence ratio
1,AATGGAGTTT,1 ± 0.023
2,AATGGATACG,1.05 ± 0.019
3,AATGGATGGG,0.999 ± 0.011
4,AATGGATTTC,1 ± 0.029
5,AATGGCATGG,1.02 ± 0.016
6,AATGGCTGGT,0.994 ± 0.017
7,AATGGGAAAT,0.968 ± 0.059
8,AATGGGAGGG,1 ± 0.032
9,AATGGGCAGT,0.989 ± 0.029
10,AATGGGGAAA,1 ± 0.028
11,AATGGGGAAG,0.985 ± 0.018
12,AATGGGGGAT,0.988 ± 0.029
13,AATGGGGGG,0.986 ± 0.039
14,AATGGGTGAT,0.9826 ± 0.0024
15,AATGGGTGCA,1.03 ± 0.054
16,AATGGTATGG,0.982 ± 0.024
17,AATGGTGTAC,1.03 ± 0.011
18,AATGGTGTAG,1.003 ± 0.0013
19,AATGGTTCGG,0.962 ± 0.036
20,AATGGTTTAT,0.9489 ± 0.0065
21,AATGGTTTGT,0.999 ± 0.025
22,AATGTAAAAG,0.988 ± 0.039
23,AATGTAAAGT,1.001 ± 0.0047

row,Sequence,switch fluorescence ratio
1,AATGTAATCA,0.997 ± 0.024
2,AATGTAATTA,1.01 ± 0.011
3,AATGTATGGG,0.99 ± 0.058
4,AATGTCAGCG,0.999 ± 0.037
5,AATGTCTCTC,0.998 ± 0.058
6,AATGTGAAAA,0.976 ± 0.053
7,AATGTGCTAG,0.995 ± 0.021
8,AATGTGCTGG,0.993 ± 0.018
9,AATGTGGGAA,1.01 ± 0.044
10,AATGTGGGTC,0.9392 ± 0.006
11,AATGTGTACT,1.03 ± 0.032
12,AATGTGTCA,1.01 ± 0.011
13,AATGTTCGTT,1.01 ± 0.014
14,AATGTTCTGG,0.99 ± 0.032
15,AATGTTGCGT,0.99 ± 0.028
16,AATGTTGTGG,0.985 ± 0.031
17,AATGTTTATC,1.027 ± 0.0084
18,AATGTTTATT,0.954 ± 0.01
19,AATGTTTTAC,0.97 ± 0.035
20,AATTAACGGG,1.02 ± 0.019
21,AATTAATAAG,1.011 ± 0.0076
22,AATTAATGCA,1.01 ± 0.038
23,AATTACCGCG,1.03 ± 0.023

row,Sequence,switch fluorescence ratio
1,AATTACGTGT,1.0006 ± 0.00059
2,AATTAGACGG,1.03 ± 0.046
3,AATTAGCATC,1.06 ± 0.044
4,AATTAGCCAT,0.987 ± 0.011
5,AATTAGCTGA,1.01 ± 0.029
6,AATTAGCTGC,1.04 ± 0.043
7,AATTAGGGCT,0.971 ± 0.026
8,AATTAGGTGA,1.04 ± 0.031
9,AATTAGTATG,0.999 ± 0.014
10,AATTATACGT,1.05 ± 0.014
11,AATTATAGTT,0.99268 ± 5.5e-05
12,AATTATCATC,1.02 ± 0.013
13,AATTATCCTT,1.07 ± 0.037
14,AATTATCGAC,1 ± 0.031
15,AATTATGGTG,1.01 ± 0.012
16,AATTATGGTT,1.03 ± 0.012
17,AATTATTCGA,1.02 ± 0.011
18,AATTATTCGT,1.024 ± 0.01
19,AATTATTGGT,1.01 ± 0.026
20,AATTCAACAG,1.01 ± 0.03
21,AATTCAATGA,1.01 ± 0.045
22,AATTCACTAA,1.028 ± 0.0063
23,AATTCAGCCA,0.9878 ± 0.0057

row,Sequence,switch fluorescence ratio
1,AATTCGATAG,0.966 ± 0.0039
2,AATTCGCGTT,0.9868 ± 0.004
3,AATTCGTGCA,1.03 ± 0.036
4,AATTCTGGTT,0.9664 ± 0.0018
5,AATTGAGTGT,1.01 ± 0.019
6,AATTGATTGT,0.993 ± 0.051
7,AATTGATTTA,1 ± 0.086
8,AATTGATTTT,1.01 ± 0.03
9,AATTGCAGAG,1.014 ± 0.0032
10,AATTGCGTTG,0.979 ± 0.025
11,AATTGGCCGG,0.989 ± 0.011
12,AATTGGGGGA,0.979 ± 0.031
13,AATTGGTAAA,0.9816 ± 0.0044
14,AATTGGTGCA,0.96 ± 0.011
15,AATTGTAAAA,0.988 ± 0.027
16,AATTGTATAT,0.985 ± 0.042
17,AATTGTGAGT,0.985 ± 0.024
18,AATTGTTAAC,0.995 ± 0.016
19,AATTGTTTAG,0.982 ± 0.034
20,AATTGTTTTT,1 ± 0.021
21,AATTTAAAAC,1.02 ± 0.031
22,AATTTAGGAT,0.989 ± 0.027
23,AATTTAGGCC,1.023 ± 0.0087

row,Sequence,switch fluorescence ratio
1,AATTTAGGGA,1 ± 0.0089
2,AATTTAGGGT,1.01 ± 0.028
3,AATTTATGGG,0.986 ± 0.021
4,AATTTATTTG,1.01 ± 0.037
5,AATTTATTTT,0.991 ± 0.026
6,AATTTCTGTG,0.978 ± 0.035
7,AATTTGAATT,0.98 ± 0.013
8,AATTTGACGT,0.981 ± 0.034
9,AATTTGATAA,0.981 ± 0.011
10,AATTTGGTAA,0.999 ± 0.019
11,AATTTGTAAG,1.01 ± 0.023
12,AATTTGTACC,0.989 ± 0.013
13,AATTTGTAGA,0.9996 ± 0.0047
14,AATTTTACGA,1.04 ± 0.024
15,AATTTTAGGT,0.959 ± 0.015
16,AATTTTATCG,0.9741 ± 0.0085
17,AATTTTATGT,1.01 ± 0.011
18,AATTTTGGGA,0.994 ± 0.023
19,AATTTTGTTT,0.991 ± 0.035
20,AATTTTTCTC,1.05 ± 0.1
21,AATTTTTCTT,0.98 ± 0.05
22,AATTTTTGAT,0.979 ± 0.037
23,AATTTTTGCT,0.966 ± 0.011

row,Sequence,switch fluorescence ratio
1,AATTTTTGGG,0.994 ± 0.03
2,AATTTTTTAA,0.985 ± 0.019
3,AATTTTTTGT,1.01 ± 0.033
4,ACAAAACATG,1.16 ± 0.15
5,ACAAAACGTT,1.028 ± 0.0078
6,ACAAAATGTT,1.02 ± 0.019
7,ACAAAGATGA,0.973 ± 0.015
8,ACAACATCCT,1.08 ± 0.044
9,ACAACGGAAG,1.03 ± 0.035
10,ACAACGGGGT,1.01 ± 0.046
11,ACAAGCGTTT,1.01 ± 0.036
12,ACAAGGCCTT,0.993 ± 0.031
13,ACAAGGGGCA,1.01 ± 0.028
14,ACAAGGGGCT,1.02 ± 0.021
15,ACAAGGTGTT,1.2 ± 0.022
16,ACAAGTTCAG,0.993 ± 0.023
17,ACAATGAGTT,0.985 ± 0.015
18,ACAATGTCGG,0.998 ± 0.011
19,ACAATGTGTG,0.985 ± 0.038
20,ACACAAATGA,1.01 ± 0.024
21,ACACATAGGG,0.9985 ± 0.0084
22,ACACCGGTTA,1.01 ± 0.035
23,ACACCTAGGC,1.12 ± 0.054

row,Sequence,switch fluorescence ratio
1,ACACGATGGG,1 ± 0.019
2,ACACGGGGAA,1.0184 ± 0.00046
3,ACACGGGTTA,1 ± 0.047
4,ACACGTACTT,1.52 ± 0.065
5,ACACGTGGTT,1.04 ± 0.076
6,ACACGTTCTT,0.996 ± 0.019
7,ACACTAATCT,1.16 ± 0.15
8,ACACTACGTC,1.51 ± 0.056
9,ACACTCAGAG,1.019 ± 0.004
10,ACACTGGCCC,0.964 ± 0.038
11,ACACTGGGCA,1.022 ± 0.0053
12,ACAGAAGGGT,0.972 ± 0.098
13,ACAGAAGGTC,0.977 ± 0.015
14,ACAGACTCGG,1.039 ± 0.0036
15,ACAGAGGGTG,1.08 ± 0.095
16,ACAGAGGTTT,0.984 ± 0.035
17,ACAGATGAGC,1.01 ± 0.056
18,ACAGATGGGA,1.04 ± 0.046
19,ACAGCGCAAT,2.12 ± 0.94
